This test addresses SpyTag-γPFD-Cys (not stated | Methanocaldococcus jannaschii). The experiment in a line: leaching of fluorescent protein from the hydrogel, fluorescence of the buffer.

For the substance SpyCatcher-mCerulean3, the percent leached from the hydrogel after two weeks turned out to be 35%.

Values taken from article PMC6370476.
